The target in experiment [1] is Purified human plasmin (human). The experiment in a line: protease inhibition assay (residual amidolytic activity, tight-binding inhibitor fit); enzyme (plasmin 3 nM; FVIIa/sTF 20 nM; pKLK and FXIa 1 nM each) incubated with inhibitor (10^-1 to 2 x 10^3 nM; up to 3 µM in Figure 3B) for 1 h at room temperature in TBS pH 7.5 (50 mM Tris-HCl, 100 mM NaCl), 0.1 mg BSA/mL, 2 mM Ca2+; synthetic substrate added to 1 KM; Ki corrected for substrate.

The target in experiment [2] is Purified human factor XIa (human) (UniProt P03951). Described as above.
The next experiment deals with Plasma kallikrein (UniProt P03952). Described as above.
In experiment [3] the target is Human factor VIIa in complex with soluble tissue factor (sTF, residues 1-219) (UniProt P08709). The description is as above.
The target in experiment [4] is Tissue plasminogen activator (Alteplase) (UniProt P00750). As to the kind of experiment: SPR; Biacore T100, 25 °C; DIP-δplasmin or tPA amine-coupled to CM5 chip; analyte KD1-Y11T/L17R-K_(COOH) 100 to 2000 nM in HBS-P (20 mM HEPES pH 7.4, 100 mM NaCl, 0.005% P20), 10 µL/min, 6 min association, 10 min dissociation; regenerated with 20 mM EACA; 1:1 binding model, Kd = kd/ka. (In general: SPR reads the build-up and loss of mass on a sensor chip optically.)

The target in experiment [5] is DIP-δplasmin (active-site blocked δplasmin; recombinant plasmin containing the protease domain and the first kringle domain, treated with DFP). The description is as above.

Where only a bound is given, the exact number is not on record here.

As usually defined, the Ki is the equilibrium dissociation constant of an inhibitor or competing ligand from its target. Low readings indicate higher affinity, high ones lower affinity. A word on the Kd: it is the free concentration of one partner at which half of the binding sites on the other are occupied at equilibrium, for simple one-to-one binding. As a reminder, the koff is a measure of how fast the partners let go of each other. For orientation: kon means the second-order rate constant of association.

“KD1-L17R-K_(COOH) (60-residue single mutant of human TFPI-2 Kunitz domain 1 with C-terminal IEK), E. coli expressed (domain or fragment)” displayed an inhibition constant Ki in experiment [1] of 0.9 nM.
Same read-out and setting: the figure for “KD1-Y11T/L17R-K_(COOH) (60-residue double mutant of human TFPI-2 Kunitz domain 1 with C-terminal IEK), E. coli expressed (domain or fragment)” is 0.59 nM; for “KD1-Y11T/L17R-K_(COOH) (60-residue double mutant of human TFPI-2 Kunitz domain 1 with C-terminal IEK), Pichia pastoris expressed (domain or fragment)” it is 0.59 nM.
“KD1-Y11T/L17R-K_(COOH) (60-residue double mutant of human TFPI-2 Kunitz domain 1 with C-terminal IEK), expression host not stated for the experiment (domain or fragment)”: the Ki (in experiment [2]; in the experiment with Plasma kallikrein; in experiment [3]) was over 3000 nM throughout. Also, the Kd in experiment [4] was determined as 35.4 nM; in experiment [5] it was 47.6 nM. Also, the off-rate constant (koff) in experiment [4] was determined as 0.000105 s⁻¹; in experiment [5], 7.13e-05 s⁻¹. The kon in experiment [4] was 2910 M⁻¹ s⁻¹; in experiment [5], 1490 M⁻¹ s⁻¹.
In experiment [1], “Wild-type KD1 (Kunitz domain 1 of human tissue factor pathway inhibitor type-2) containing the IIa cleavage site (domain or fragment)” had an inhibitory constant (Ki) of 6 nM.

(Values after paper PMC7698382.)
